Laboratory results: PMC8136826

Target: Cas12a ΔBH (Francisella novicida, UniProt A0Q7Q2 1-1300, del953-969)
Assay: EMSA

B1: crRNA + dsDNA target (58 nt, TS/NTS) (mixed)
RNA: UAAUUUCUACUGUUGUAGAUGUGAUAAGUGGAAUGCCAUGUGGG
DNA 1: ACTCAATTTTGACAGCCCACATGGCATTCCACTTATCACTAAAGGCATCCTTCCACGT
DNA 2: ACGTGGAAGGATGCCTTTAGTGATAAGTGGAATGCCATGTGGGCTGTCAAAATTGAGT
binding result: binds
